The Kd is the concentration at which binding is half-saturated.

Test [1] deals with claudin 18.2 (CLDN 18.2), recombinant protein (human). Kind of test: direct ELISA, coated CLDN 18.2 (FIG. 28A). Background: In an ELISA, binding on a coated surface is turned into a signal by an enzyme label.
Test [2] shares this target. As to the kind of experiment: direct ELISA, coated recombinant CLDN 18.2 (FIG. 7A).
The target is the same in test [3]. Kind of test: direct ELISA, coated recombinant CLDN 18.2. From the text:
ELISA assay was employed to determine the binding properties of the bispecific antibodies to their antigens. […] The wells were then reacted with goat anti human IgG antibody conjugated with horseradish peroxidase (HRP).

Test [4] concerns the target T1, CLDN 18.2 expressed on stably transfected cells (HEK293T-CLDN 18.2, MiaPaCa-CLDN 18.2) (human). Kind of test: cell-based or functional assay.
In test [5] the target is T2, CLDN 18.2 fused with GFP at its C-terminal, on MCF7 cells (MCF7-CLDN 18.2) (human). As to the kind of experiment: cell-based or functional assay.
The target of test [6] is T1, CLDN 18.2 expressed on stably …. As to the kind of experiment: cell-based or functional assay. The source holds these as a separate data set.
The target of test [7] is T2, CLDN 18.2 fused with GFP at its …. Kind of test: cell-based or functional assay. This is another data set of the same source.

T1 sequence (chain, as listed by the source limits assumed): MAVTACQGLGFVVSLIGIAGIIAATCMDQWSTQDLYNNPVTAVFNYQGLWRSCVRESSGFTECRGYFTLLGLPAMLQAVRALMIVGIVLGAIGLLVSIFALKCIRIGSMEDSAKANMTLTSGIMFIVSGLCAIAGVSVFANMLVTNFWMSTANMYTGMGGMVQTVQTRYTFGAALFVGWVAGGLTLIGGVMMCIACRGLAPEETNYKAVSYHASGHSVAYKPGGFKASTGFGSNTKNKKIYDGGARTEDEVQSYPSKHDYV
Sequence of claudin 18.2 (CLDN 18.2), recombinant protein (human) (chain, as listed by the source limits assumed): as above
T2 sequence (chain, as listed by the source): as the sequence (chain, as listed by the source limits assumed) above

B1: h5C9ob, monospecific parent anti-CLDN 18.2 monoclonal antibody (IgG) (antibody, V domains shown)
VH: EVQLVESGGGLVQPGGSLRLSCAVSGYTFSMNWVRQAPGKGLEWVAWINMYTGEPTYADDFKGRFTISRDDSKNTLYLQMNSLRAEDTAVYYCARLYNGNSLDYWGQGTLVTVSS
VL: DIQMTQSPSSLSASVGDRVTITCKSSQSLLNSGNQKSYLTWYQQKPGKAPKLLIYWASTLESGVPSRFSGSGSGTDYTLTISSLQPEDFATYYCQNAYFFPFTFGQGTKVEIKR
notes: Whole human IgG1 produced as described under 'Production of Recombinant Antibodies'
As to B1, the Kd in test [1] is 0.0819 nM. Moreover, the Kd in test [2] came to 0.133 nM. Further, the Kd in test [3] was determined as 0.13 nM. Also, in test [4], the “ADCC Reporter in HEK293-CLDN18.2, EC50” value was 0.056 nM; the “CDC in HEK293-CLDN 18.2, EC50” value was found to be 0.43 nM; the “CDC in MiaPaCa-CLDN 18.2, EC50” value came to 0.52 nM. Moreover, in test [5], the “ADCC Reporter in MCF7-CLDN 18.2, EC50” value turned out to be 0.006 nM. Moreover, in test [6], the “ADCC reporter assay, EC50 (FIG. 18)” value was 0.0561 nM and the “CDC against Mia Paca-CLDN 18.2 cells, EC50 (FIG. 17B)” value was 0.52 nM. Moreover, the “ADCC reporter assay, EC50 (FIG. 24A)” value in test [7] is 0.00443 nM.
